What is called Kd is the free concentration of one partner at which half of the binding sites on the other are occupied at equilibrium, for simple one-to-one binding. Low values mean tighter binding, high ones weaker binding.

Like-named read-outs stand apart in the source and are kept apart here. Square brackets hold non-standard residues; d marks the D form. Ends that are not written are not given here.

These results are taken from paper PMC6834639 (Nature Communications, 2019).

For this experiment, the target named is tetrameric transthyretin (TTR) (Homo sapiens, UniProt P02766). Nature of the experiment: In-solution kinetics analysis of TTR-Aβ interactions via OpenSPR. As to conditions: for koff: dissociation rate constant. Format: binding. How it is done:
One of the most common applications of SPR is the analysis and quantification of the interactions between proteins. SPR experiments were performed using a Nicoya Lifesciences OpenSPR system equipped with a COOH chip. Following the start-up procedure found in the OpenSPR™ manual, setup the OpenSPR™ instrument and load a COOH Sensor Chip. The COOH surface was activated following the instructions included in the Amine kit. The ligand was diluted to a concentration of 45 μg/mL into immobilization buffer (provided by Nicoya Lifesciences, pH 4.5) and 100 μL was injected at 20 μL/min for a 5-min interaction time. […] Immobilization was monitored via absorbance change in a standard solution of filtered buffer (PBS, pH 6.8, with 0.005% Tween 20) for 5 min at a flow rate of 50 μl/min. The surface was blocked with an injection of 100 μL of blocking buffer (provided by Nicoya Lifesciences, 1 M ethanolamine, pH 8.5). […] An association time of 150 s and a dislocation time of 400 s were used. The surface was regenerated with an injection of regeneration buffer (HCl 10 mM, pH 2.0) at a speed of 150 μL/min between each analyte injection. The chip was washed in 10 mM HCl (pH 2.0) to remove impurities. Data were collected at a rate of 5 Hz and was single referenced with blank injections. Data were fit to a 1:1 interaction model using the analysis software TraceDrawer.

[1] abbreviates: OpenSPR, association rate constant, immobilized TTR, PBS pH 6.8, 0.005% Tween 20, 1:1 model, average of three ± SD.
Where [2] appears, read: OpenSPR, immobilized TTR, PBS pH 6.8, 0.005% Tween 20, 1:1 model, average of three ± SD.
[3] abbreviates: OpenSPR, Replicate #1, read-out: ka.
The mark [4] stands for this setting: OpenSPR, Replicate #2, read-out: ka.
Setting [5] is: OpenSPR, Replicate #3, read-out: ka.
[6] abbreviates: pH 6.8, OpenSPR, association rate constant, immobilized TTR, PBS pH 6.8, 0.005% Tween 20, 1:1 model, average of three ± SD, read-out: Ka (1/(M*s)) × 10^−2.

Where the note is “OpenSPR, Replicate #1”, “dD Aβ (17–36): Aβ (17–36) with D-isomerized Asp (LVFFAE[dD]VGSNKGAIIGLMV)” gave a Kd of 116 µM, a ka of 1720 M⁻¹ s⁻¹ and a kd of 0.199 s⁻¹. Also, for the setting “OpenSPR, Replicate #2”, the affinity, expressed as Kd, was 199 µM; the ka was found to be 489 M⁻¹ s⁻¹; the kd came out at 0.0975 s⁻¹. Under “OpenSPR, Replicate #3”, the dissociation constant Kd worked out at 133 µM, the ka amounted to 753 M⁻¹ s⁻¹ and the kd turned out to be 0.1 s⁻¹. Further, the “Ka (1/(M*s)) × 10^−2” value under setting [1] was 9.9 ± 3.2 1/(M*s) × 10^−2. Moreover, the koff under setting [2] is on record as 13.2 ± 2.9 1/s × 10^2.

With `CC[C@H](C)[C@H](NC(=O)[C@H](C)NC(=O)CNC(=O)[C@H](CCCCN)NC(=O)[C@H](CC(N)=O)NC(=O)[C@H](CO)NC(=O)CNC(=O)[C@@H](NC(=O)[C@H](CC(=O)O)NC(=O)[C@H](CCC(=O)O)NC(=O)[C@H](C)NC(=O)[C@H](Cc1ccccc1)NC(=O)[C@H](Cc1ccccc1)NC(=O)[C@@H](NC(=O)[C@@H](N)CC(C)C)C(C)C)C(C)C)C(=O)N[C@H](C(=O)NCC(=O)N[C@@H](CC(C)C)C(=O)N[C@@H](CCSC)C(=O)N[C@H](C(=O)O)C(C)C)[C@@H](C)CC` [WT Aβ (17–36)], the kon under setting [3] was 886 M⁻¹ s⁻¹, the kon under setting [4] worked out at 586 M⁻¹ s⁻¹, the kon under setting [5] is 603 M⁻¹ s⁻¹ and the kon under setting [6] was 690 ± 80 M⁻¹ s⁻¹.

Where the note is “OpenSPR, Replicate #1”, “dS Aβ (17–36): Aβ (17–36) with D-isomerized Ser (LVFFAEDVG[dS]NKGAIIGLMV)” yielded a dissociation constant Kd of 86.9 µM, a ka of 1660 M⁻¹ s⁻¹ and a kd of 0.144 s⁻¹. Where the note is “OpenSPR, Replicate #2”, this compound returned a Kd of 220 µM, a ka of 657 M⁻¹ s⁻¹ and a kd of 0.144 s⁻¹. Also, where the note is “OpenSPR, Replicate #3”, binding was put at a Kd of 47.3 µM, the ka worked out at 1150 M⁻¹ s⁻¹ and the kd stood at 0.0546 s⁻¹. For the same compound, the “Ka (1/(M*s)) × 10^−2” value under setting [1] was 11.6 ± 2.5 1/(M*s) × 10^−2. Further, under setting [2], the koff was 11.4 ± 2.6 1/s × 10^2.

Take `CC[C@H](C)[C@H](NC(=O)[C@H](C)NC(=O)CNC(=O)[C@H](CCCCN)NC(=O)[C@H](CC(N)=O)NC(=O)[C@@H](CO)NC(=O)CNC(=O)[C@@H](NC(=O)[C@@H](CC(=O)O)NC(=O)[C@H](CCC(=O)O)NC(=O)[C@H](C)NC(=O)[C@H](Cc1ccccc1)NC(=O)[C@H](Cc1ccccc1)NC(=O)[C@@H](NC(=O)[C@@H](N)CC(C)C)C(C)C)C(C)C)C(=O)N[C@H](C(=O)NCC(=O)N[C@@H](CC(C)C)C(=O)N[C@@H](CCSC)C(=O)N[C@H](C(=O)O)C(C)C)[C@@H](C)CC` [dDdS Aβ (17–36)]: the kon was determined as 3490 M⁻¹ s⁻¹ under setting [3], 818 M⁻¹ s⁻¹ under setting [4], 1470 M⁻¹ s⁻¹ under setting [5] and 1930 ± 700 M⁻¹ s⁻¹ under setting [6]. For the same compound, the “binding dissociation rate constant higher than the WT Aβ (17–36) fragment” value (OpenSPR, tetrameric TTR, relative to WT Aβ (17–36)) is reported as ~ 13 folds.
